One substance from US20170240614A1 can be followed below.

As usually defined, the Ki is the dissociation constant of the complex between target and ligand, obtained from inhibition or displacement. Higher therefore signals lower affinity.

Assay [1] deals with human insulin receptor isoform B (hIR-B) containing a C9 epitope tag at the C-terminus (human) (UniProt P06213). Put plainly: cell-based or functional assay.
Assay [2] shares this target. As to the kind of experiment: competitive radioligand binding (SPA), [125I]-A14-insulin, hIR-B membranes.
Assay [3] deals with human insulin receptor isoform A (hIR-A) (human) (UniProt P06213). Put plainly: competitive radioligand binding (SPA), [125I]-A14-insulin, hIR-A membranes.

As for “IGF-1 (from UniProt P05019 49-118) (ligand)”, in assay [1], the Receptor Phosphorylation EC50 amounted to 253 nM. The Ki in assay [2] came out at 50.8 nM; in assay [3], 4.1 nM.
